Results on 1 molecule are retold here after US20060045881A1, “Anti-cancer vaccines” (Board of Regents, The University of Texas System, priority 2004, published 2006).

The target of the assay is HLA-A2.1 (HLA-A*0201) on the surface of T2 cells (human).

The molecule KLGEFYNQMM (modifications not checked) [Influenza B nucleoprotein peptide (aa 85-94), P04665 85-94] had a Median Channel of Fluorescence of HLA-A2 Expression on T2 (median channel of fluorescence) of 194.
